From patent US20040053278A1

How the values were obtained:
[1] = molecular target: constitutively active (TD) TβR-I (UniProt P36897); assay: cell-based or functional assay
[2] = molecular target: constitutively active BMPR-IB; assay: cell-based or functional assay

Chain of constitutively active (TD) TβR-I (P36897 34-503 T204D limits assumed): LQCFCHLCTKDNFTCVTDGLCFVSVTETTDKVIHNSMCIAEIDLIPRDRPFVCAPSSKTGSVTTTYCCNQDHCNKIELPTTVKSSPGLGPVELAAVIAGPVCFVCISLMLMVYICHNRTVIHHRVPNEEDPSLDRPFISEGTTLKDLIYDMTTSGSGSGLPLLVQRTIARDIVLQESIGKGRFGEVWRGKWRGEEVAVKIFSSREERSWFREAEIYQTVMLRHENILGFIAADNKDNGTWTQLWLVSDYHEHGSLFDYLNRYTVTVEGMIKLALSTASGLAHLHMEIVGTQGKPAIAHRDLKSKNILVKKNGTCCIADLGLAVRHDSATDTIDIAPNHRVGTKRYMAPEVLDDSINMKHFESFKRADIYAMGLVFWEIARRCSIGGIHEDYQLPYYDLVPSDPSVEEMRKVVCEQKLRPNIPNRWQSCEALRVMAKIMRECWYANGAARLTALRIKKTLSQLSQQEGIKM

Phosphorylation of Smad2 induced by constitutively active TβR-I ([32P]orthophosphate labeling, immunoprecipitation) [1]: 39 % reduction | Smad1 phosphorylation induced by constitutively active BMPR-IB [2]: 60 % reduction
Substance: Myc-Smad6 (from UniProt O35182 1-495)
